From publication PMC10415120

Target: MDC1 (endogenous, HCT116) [human (endogenous in HCT116)]
Assay: proximity ligation assay (PLA) in cells
Conditions: ESCO2 KD HCT116 cells, bleomycin treated; 30 cells counted per group; mean ± SEM; parent: 14; read off a plot

response (PLA dots per cell): 0.5
Substance: Flag-ESCO2 WT (in ESCO2 KD HCT116 cells) mutant S196A; T233A [human] / MDC1 (endogenous, HCT116) [human (endogenous in HCT116)] chain 1 S196A, chain 1 T233A
